Test results as given in article PMC4316792, “The dehydrogenase region of the NADPH oxidase component Nox2 acts as a protein disulfide isomerase (PDI) resembling PDIA3 with a role in the binding of the activator protein p67^phox” (Frontiers in Chemistry, 2015).
Bridges are numbered along the chain shown (N, C = ends). The star is where a group is joined. Biotin = O=C1N[C@H]2[C@H](CS[C@H]2CCCCC(=O)*)N1

How the values were obtained:
[1] = target: NADPH oxidase (macrophage membrane liposomes, cytochrome b558) (Cavia porcellus, UniProt H0UXC6); type: biochemical, guinea pig
[2] = PDI reductase activity, DE-GSSG reduction; type: biochemical
[3] = tested on: p67^phox(1–526); assay: Effect of thiol reagents on binding of p67phox(1–526) to Nox2 peptide 24; settings: 1 h room temperature
[4] = tested on: NADPH oxidase; set-up: method as in 8 sources, one per row (each row's own in cited_ref): ref Shpungin et al., [1989] ||| ref Bellavite et al., [1983]; Gabig and Lefker, [1984] ||| ref Pick et al., [1987] ||| ref Le Cabec and Maridonneau-Parini, [1995] ||| ref Nishida et al., [2005] ||| ...; settings: ref Paes et al., [2011], cited from earlier work
[5] = target: T1, p67^phox(1–212) (UniProt P19878 1-212); assay: ELISA; peptide—protein binding assay as a1, with peptide 24 and the modified peptides, all in the reduced form, subjected to oxidation by 1 mM H2O2; settings: both partners purified
T1 construct: contains four cysteines (40, 45, 121, 165); source: E. coli, purified (Nickel Sepharose); not shown: 6His, N-terminal, kept
T1 sequence (looked up): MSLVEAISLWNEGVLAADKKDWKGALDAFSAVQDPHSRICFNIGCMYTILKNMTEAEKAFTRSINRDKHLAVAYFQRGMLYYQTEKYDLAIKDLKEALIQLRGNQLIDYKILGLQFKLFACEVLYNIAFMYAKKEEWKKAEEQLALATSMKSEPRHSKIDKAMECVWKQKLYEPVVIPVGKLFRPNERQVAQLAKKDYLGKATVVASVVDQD

In the case of 16F16, the “inhibition of oxidase activation, in words” value [1] is reported as “Lack of an inhibitory effect”.

With `NC(=O)C1=CN([C@@H]2O[C@H](COP(=O)(O)OP(=O)(O)OC[C@H]3O[C@@H](n4cnc5c(N)ncnc54)[C@H](OP(=O)(O)O)[C@@H]3O)[C@@H](O)[C@H]2O)C=CC1` [NADPH] the “replacement of DTT in the DE-GSSG reduction assay” value ([2]; up to 125 μM) was “could not be replaced”.

For `CN(C)C(=O)/N=N/C(=O)N(C)C` [diamide], the “effect of pretreatment of p67phox on low affinity binding to native form of peptide 24” value ([3]; NEM 0.1 mM or diamide 5 mM, three experiments (Figure 2A,B)) was “suppressed” and the “effect of diamide pretreatment of p67phox on binding to peptide 24 in the disulfide form” value ([3]; p67^phox(1–526) 1.5 μM, diamide 5 mM, three experiments (Figure 2B)) was “totally abolished”.

For oxidized PDI: exogenous oxidized PDI, the “effect of exogenous PDI on oxidase activation in vitro” value [4] is given as “enhance”.

For reduced PDI: exogenous reduced PDI, the “effect of exogenous PDI on oxidase activation in vitro” value [4] is given as “diminish”.

B1: NusA-Nox2(372–570): fusion protein of NusA and Nox2 residues 372–570, lacks the CGC triad (protein)
chain: DKQEFQDAWKLPKIAVDGPFGTASEDVFSYEVVMLVGAGIGVTPFASILKSVWYKYCNNATNLKLKKIYFYWLCRDTHAFEWFADLLQLLESQMQERNNAGFLSYNIYLTGWDESQANHFAVHHDEEKDVITGLKQKTLYGRPNWDNEFKTIASQHPNTRIGVFLCGPEALAETLSKQSISNSESGPRGVHFIFNKENF
modifications: left off: NusA (E. coli), N-terminal, kept | His tag (from the purification on Nickel Sepharose), end not stated, state not stated
notes: fusion protein of NusA and Nox2 residues 372–570, lacks the CGC triad
For B1, the “loss of PDI activity” value ([2]; 2 μM (Figure 6C)) was “almost complete loss of PDI activity” and the “Vmax, PDI reductase activity (Figure 6C)” value ([2]; 2 μM, DE-GSSG 800 nM, DTT 12.5 μM, one characteristic experiment, DTT only 26,248) was 31,920 milli relative fluorescence units per min.

B2: scrambled RNAse: ribonuclease A, with scrambled disulfide bonds from bovine pancreas (protein, UniProt P61823 27-150, looked up)
Ribonuclease pancreatic: KETAAAKFERQHMDSSTSAASSSNYCNQMMKSRNLTKDRCKPVNTFVHESLADVQAVCSQKNVACKNGQTNCYQSYSTMSITDCRETGSSKYPNCAYKTTQANKHIIVACEGNPYVPVHFDASV
modifications: scrambled disulfide bonds
notes: ribonuclease A, with scrambled disulfide bonds from bovine pancreas
In the case of B2, the “IC50, NADPH oxidase activation” value [1] is listed as “could not be determined”, the “inhibition of oxidase activation, in words” value [1] is listed as “ineffective” and the “inhibition of oxidase activation, amphiphile-dependent cell-free system” value ([4]; neutrophil membranes and recombinant cytosolic components) is listed as “inhibit oxidase activation”.

B3: Nox2 peptide 24 (357–371) with an intramolecular disulfide bond between C369 and C371 (peptide)
peptide: Biotin-SGSGIVGDWTEGLFNACGC-NH2
modifications: disulfide 17-19
SMILES: CC[C@H](C)[C@H](NC(=O)CNC(=O)[C@H](CO)NC(=O)CNC(=O)[C@H](CO)NC(=O)CCCC[C@@H]1SC[C@@H]2NC(=O)N[C@@H]21)C(=O)N[C@H](C(=O)NCC(=O)N[C@@H](CC(=O)O)C(=O)N[C@@H](Cc1c[nH]c2ccccc12)C(=O)N[C@H](C(=O)N[C@@H](CCC(=O)O)C(=O)NCC(=O)N[C@@H](CC(C)C)C(=O)N[C@@H](Cc1ccccc1)C(=O)N[C@@H](CC(N)=O)C(=O)N[C@@H](C)C(=O)N[C@H]1CSSC[C@@H](C(N)=O)NC(=O)CNC1=O)[C@@H](C)O)C(C)C
notes: spacer between the N-terminal biotin and the peptide, printed as Ser-Gly-Ser-Gly; also called 24N CGC S-S; 24N S-S; source: synthetic peptide (Mimotopes or Bachem), synthesized in the disulfide form; also made from the reduced peptide by oxidation with 1 mM H2O2; not shown: biotin, N-terminal, kept
B3: binds [5].

B4: Nox2 peptide 24 analog with CGC replaced by CysGlyHisCys, intramolecular disulfide bond between cysteines 369 and 372 (peptide)
peptide: Biotin-SGSGIVGDWTEGLFNACGHC-NH2
modifications: disulfide 17-20
SMILES: CC[C@H](C)[C@H](NC(=O)CNC(=O)[C@H](CO)NC(=O)CNC(=O)[C@H](CO)NC(=O)CCCC[C@@H]1SC[C@@H]2NC(=O)N[C@@H]21)C(=O)N[C@H](C(=O)NCC(=O)N[C@@H](CC(=O)O)C(=O)N[C@@H](Cc1c[nH]c2ccccc12)C(=O)N[C@H](C(=O)N[C@@H](CCC(=O)O)C(=O)NCC(=O)N[C@@H](CC(C)C)C(=O)N[C@@H](Cc1ccccc1)C(=O)N[C@@H](CC(N)=O)C(=O)N[C@@H](C)C(=O)N[C@H]1CSSC[C@@H](C(N)=O)NC(=O)[C@H](Cc2c[nH]cn2)NC(=O)CNC1=O)[C@@H](C)O)C(C)C
notes: spacer between the N-terminal biotin and the peptide, printed as Ser-Gly-Ser-Gly; also called 24N CGHC S-S (disulfide form); source: synthetic peptide (Mimotopes or Bachem), synthesized in the disulfide form; also made from the reduced peptide by oxidation with 1 mM H2O2; not shown: biotin, N-terminal, kept
B4: binds [5].
